A short description of this data set: amyloid nucleation score (Sup35N fusion, yeast selection) (log enrichment); library NNK3; higher = more nucleation; inactive = no reads after selection. In a few lines: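 Peptides of 20 random codons, each fused to Sup35N, were expressed in psi-negative yeast. Cells were induced with 100 μM copper sulfate for 24 hours and grown 7 days at 30°C on medium lacking adenine and uracil, and plasmid inserts before and after selection were Illumina-sequenced. Nucleation scores are DiMSum log enrichments of output over input reads, centred on the mode score of non-aggregating sequences, and sequences under 100 input reads were excluded.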

± gives the uncertainty stated by the source.

Our source for the amyloid nucleation score values is the supplement of paper PMC12042874.

Consider TASRFFCRWVYFRKGVSRCS, for which the amyloid nucleation score entry is “inactive”.
For LWLIPC, the amyloid nucleation score result was “inactive”.
With RSWESV the entry was “inactive”; with RYEVPGTSFLNM, “inactive”; with DAPSFLSMSRFAFYNFNLYW, 1.29 ± 0.12.
With YYDCIALFNSKQGSYLHYWY the entry was “inactive”; with KMRRVLLSLSVYMNCKSMVR, “inactive”; with SQFQGAMMYFCEEMCICFFC, 2.01 ± 0.097.
Consider SAREKIVLRVS, for which the amyloid nucleation score is -0.684 ± 1.1.
The same measure for RYFKIPF: “inactive”; for CCIMQPCSVVVYQWSQNRSR: 3.14 ± 0.053; for DWRMLRGFYLHINCMLSFQG: “inactive”.
With MIACNSRRCI the entry was “inactive”.
As to MFGVVTGLTLGSSTFHA, the amyloid nucleation score entry is “inactive”.
The same measure for LMLLIFAWFQILTVRIRLFR: “inactive”; for VYISFGFLILFLFSEFLPCV: “inactive”.
On to YFGKAMHLLGYSFETGLDWS, for which the amyloid nucleation score entry was “inactive”.
Take GLTWFKSIKVYVECLFRLSN: the amyloid nucleation score result is “inactive”.
The same measure for FHILIFVKTP: “inactive”; for KSLKTRYSPSVYFDFYLHYG: 1.07 ± 0.15; for FCARYLFCLISGDYS: “inactive”.
With DCSSNVRTSCWNHRSYHVVY the entry was “inactive”; with TICVYHVSFCIQHRVSRGLL, -0.18 ± 0.36; with TDVRFDRLTCCNSLIKITRW, 1.14 ± 0.082.
With SQCFIY the figure was -0.514 ± 0.78.
TLPKVMFVIQNYGFFSGFTL returned an amyloid nucleation score of 1.32 ± 0.079.
With QMYKYNPNLYFFSVAVNLVV the figure was 2.18 ± 0.073; with QFITLCLSSRSEVSVPFSLW, 0.997 ± 0.12; with PCRMKLVFFRDE, “inactive”.
With AWLNFCPSHVLLLFESYLNV the entry was “inactive”.
Regarding VFEDNDLCELINDVILEHHR, the amyloid nucleation score result was “inactive”.
As for MRGINRIDLLPG, the amyloid nucleation score entry was “inactive”.
SNRQSSGISF: the amyloid nucleation score is -0.784 ± 2.5.
With DVPSSSSMAFGIWLGLLCLD the entry was “inactive”.
With MFAADDLIPTKIVGSCF the entry was “inactive”.
EYMYIYPPFPMPWDDG: the amyloid nucleation score result is “inactive”.
The same measure for VRILLRFLVVFRLYLVFC: “inactive”; for SFLRYNKSY: “inactive”.
The same measure for RSFVVESPDKYHPIVMFGTD: “inactive”.
The same measure for STPWHSRAISVALDRGDRWM: “inactive”; for YAPSVLSCN: “inactive”; for ALYRSGLNFVIRVGTLLMIW: 1.06 ± 0.12.
Consider MASVSREAVQYNAWESMAIY, for which the amyloid nucleation score entry was “inactive”.
With IKRSGGYVGFCRLVERSQRG the entry was “inactive”.
With NLAIL the entry was “inactive”.
The same measure for YLITHV: “inactive”; for MFRTRTNNHDSVGRYLVTMN: “inactive”; for RYADMSTMNAS: “inactive”.
Consider MNMGYFRFNL, for which the amyloid nucleation score entry is “inactive”.
As for EDGLGSYFNKKVNATCLNLA, the amyloid nucleation score entry was “inactive”.
As for GDRVSEVTDCVFQAISIRCA, the amyloid nucleation score result is “inactive”.
With SHHSL the entry was “inactive”; with FRSVTTVVNVEKVRVY, “inactive”; with VKPSLF, -0.567 ± 1.
With LSSWTNLLIWSLNLCPVMFV the entry was “inactive”.
